Data on one substance can be found in paper doi:10.1101/2024.11.25.625199.

The target in this experiment is cross-linked CA(M66I) hexamer, CA(A14C/E45C/W184A/M185A) with M66I (HIV-1). Briefly: crystal structure.

Usually stoichiometry N stands for a count of units in the complex or per binding partner. Take “cross-linked CA(M66I) hexamer, CA(A14C/E45C/W184A/M185A) with M66I (natural protein)”: the stoichiometry N is 6.
